B1: nwTCR-1953 (TCR, V domains shown)
V domain 1: DAKTTQPNSMESNEEEPVHLPCNHSTISGTDYIHWYRQLPSQGPEYVIHGLTSNVNNRMASLAIAEDRKSSTLILHRATLRDAAVYYCILRAGGSGDKLTFGTGTRLAVRP
V domain 2: DTEVTQTPKHLVMGMTNKKSLKCEQHMGHRAMYWYKQKAKKPPELMFVYSYEKLSINESVPSRFSPECPNSSLLNLHLHALQPEDSALYLCASSQDPFWGAGELFFGEGSRLTVLE
notes: TCR on T cells
B2: nwTCR-2555 (TCR, V domains shown)
V domain 1: AQSVSQHNHHVILSEAASLELGCNYSYGGTVNLFWYVQYPGQHLQLLLKYFSGDPLVKGIKGFEAEFIKSKFSFNLRKPSVQWSDTAEYFCAVKMDSSYKLIFGSGTRLLVRP
V domain 2: DGGITQSPKYLFRKEGQNVTLSCEQNLNHDAMYWYRQDPGQGLRLIYYSQIVNDFQKGDIAEGYSVSREKKESFPLTVTSAQKNPTAFYLCASLGLNYNEQFFGPGTRLTVLE
notes: TCR on T cells
B3: nwTCR-2916 (TCR, V domains shown)
V domain 1: GQQLNQSPQSMFIQEGEDVSMNCTSSSIFNTWLWYKQDPGEGPVLLIALYKAGELTSNGRLTAQFGITRKDSFLNISASIPSDVGIYFCAGQDDGGSQGNLIFGKGTKLSVKP
V domain 2: DSGVTQTPKHLITATGQRVTLRCSPRSGDLSVYWYQQSLDQGLQFLIQYYNGEERAKGNILERFSAQQFPDLHSELNLSSLELGDSALYFCASSPWTSGGDGELFFGEGSRLTVLE
notes: TCR on T cells
B4: nwTCR-2523 (TCR, V domains shown)
V domain 1: RKEVEQDPGPFNVPEGATVAFNCTYSNSASQSFFWYRQDCRKEPKLLMSVYSSGNEDGRFTAQLNRASQYISLLIRDSKLSDSATYLCVVNRGSQGNLIFGKGTKLSVKP
V domain 2: DAGVTQSPTHLIKTRGQQVTLRCSPKSGHDTVSWYQQALGQGPQFIFQYYEEEERQRGNFPDRFSGHQFPNYSSELNVNALLLGDSALYLCASSLVDYEQYFGPGTRLTVTE
notes: TCR on T cells
B5: nwTCR-2286 (TCR, V domains shown)
V domain 1: GQQLNQSPQSMFIQEGEDVSMNCTSSSIFNTWLWYKQDPGEGPVLLIALYKAGELTSNGRLTAQFGITRKDSFLNISASIPSDVGIYFCAGPEDDKIIFGKGTRLHILP
V domain 2: DSGVTQTPKHLITATGQRVTLRCSPRSGDLSVYWYQQSLDQGLQFLIQYYNGEERAKGNILERFSAQQFPDLHSELNLSSLELGDSALYFCASSPWLQGGNEQFFGPGTRLTVLE
notes: TCR on T cells
B6: nwTCR-2718 (TCR, V domains shown)
V domain 1: GQQLNQSPQSMFIQEGEDVSMNCTSSSIFNTWLWYKQDPGEGPVLLIALYKAGELTSNGRLTAQFGITRKDSFLNISASIPSDVGIYFCAGFSQGGSEKLVFGKGTKLTVNP
V domain 2: DSGVTQTPKHLITATGQRVTLRCSPRSGDLSVYWYQQSLDQGLQFLIQYYNGEERAKGNILERFSAQQFPDLHSELNLSSLELGDSALYFCASSPWTAGGNTIYFGEGSWLTVVE
notes: TCR on T cells
B7: nwTCR-2418 (TCR, V domains shown)
V domain 1: DQQVKQNSPSLSVQEGRISILNCDYTNSMFDYFLWYKKYPAEGPTFLISISSIKDKNEDGRFTVFLNKSAKHLSLHIVPSQPGDSAVYFCAASGVRGQNFVFGPGTRLSVLP
V domain 2: DSGVTQTPKHLITATGQRVTLRCSPRSGDLSVYWYQQSLDQGLQFLIQYYNGEERAKGNILERFSAQQFPDLHSELNLSSLELGDSALYFCASSPWLAGGREQYFGPGTRLTVTE
notes: TCR on T cells
B8: nwTCR-2583 (TCR, V domains shown)
V domain 1: GQSLEQPSEVTAVEGAIVQINCTYQTSGFYGLSWYQQHDGGAPTFLSYNALDGLEETGRFSSFLSRSDSYGYLLLQELQMKDSASYFCALGTEDKIIFGKGTRLHILP
V domain 2: EAQVTQNPRYLITVTGKKLTVTCSQNMNHEYMSWYRQDPGLGLRQIYYSMNVEVTDKGDVPEGYKVSRKEKRNFPLILESPSPNQTSLYFCASRISLGANYGYTFGSGTRLTVVE
notes: TCR on T cells
B9: nwTCR-2316 (TCR, V domains shown)
V domain 1: TQLLEQSPQFLSIQEGENLTVYCNSSSVFSSLQWYRQEPGEGPVLLVTVVTGGEVKKLKRLTFQFGDARKDSSLHITAAQPGDTGLYLCAGVDNYGQNFVFGPGTRLSVLP
V domain 2: DAGVIQSPRHEVTEMGQEVTLRCKPISGHNSLFWYRQTMMRGLELLIYFNNNVPIDDSGMPEDRFSAKMPNASFSTLKIQPSEPRDSAVYFCASSIAALGFGELFFGEGSRLTVLE
notes: TCR on T cells
B10: nwTCR-2228 (TCR, V domains shown)
V domain 1: QKEVEQNSGPLSVPEGAIASLNCTYSDRGSQSFFWYRQYSGKSPELIMFIYSNGDKEDGRFTAQLNKASQYVSLLIRDSQPSDSATYLCAGHTGNQFYFGTGTSLTVIP
V domain 2: EPEVTQTPSHQVTQMGQEVILRCVPISNHLYFYWYRQILGQKVEFLVSFYNNEISEKSEIFDDQFSVERPDGSNFTLKIRSTKLEDSAMYFCASREDGYEQYFGPGTRLTVTE
notes: TCR on T cells
B11: nwTCR-3028 (TCR, V domains shown)
V domain 1: SQQGEEDPQALSIQEGENATMNCSYKTSINNLQWYRQNSGRGLVHLILIRSNEREKHSGRLRVTLDTSKKSSSLLITASRAADTASYFCATDVKSSYKLIFGSGTRLLVRP
V domain 2: AAGVIQSPRHLIKEKRETATLKCYPIPRHDTVYWYQQGPGQDPQFLISFYEKMQSDKGSIPDRFSAQQFSDYHSELNMSSLELGDSALYFCASSLGLLGNEQFFGPGTRLTVLE
notes: TCR on T cells
B12: nwTCR-1906 (TCR, V domains shown)
V domain 1: RKEVEQDPGPFNVPEGATVAFNCTYSNSASQSFFWYRQDCRKEPKLLMSVYSSGNEDGRFTAQLNRASQYISLLIRDSKLSDSATYLCVVTQAGTALIFGKGTTLSVSS
V domain 2: not shown
notes: TCR on T cells
B13: nwTCR-2170 (TCR, V domains shown)
V domain 1: GQQLNQSPQSMFIQEGEDVSMNCTSSSIFNTWLWYKQDPGEGPVLLIALYKAGELTSNGRLTAQFGITRKDSFLNISASIPSDVGIYFCAGQASGTYKYIFGTGTRLKVLA
V domain 2: EAQVTQNPRYLITVTGKKLTVTCSQNMNHEYMSWYRQDPGLGLRQIYYSMNVEVTDKGDVPEGYKVSRKEKRNFPLILESPSPNQTSLYFCASSSGTSDEQYFGPGTRLTVTE
notes: TCR on T cells
B14: nwTCR-2285 (TCR, V domains shown)
V domain 1: KNEVEQSPQNLTAQEGEFITINCSYSVGISALHWLQQHPGGGIVSLFMLSSGKKKHGRLIATINIQEKHSSLHITASHPRDSAVYICALNSDSNYQLIWGAGTKLIIKP
V domain 2: EAQVTQNPRYLITVTGKKLTVTCSQNMNHEYMSWYRQDPGLGLRQIYYSMNVEVTDKGDVPEGYKVSRKEKRNFPLILESPSPNQTSLYFCATSPGTLYEQYFGPGTRLTVTE
notes: TCR on T cells
B15: nwTCR-2915 (TCR, V domains shown)
V domain 1: GESVGLHLPTLSVQEGDNSIINCAYSNSASDYFIWYKQESGKGPQFIIDIRSNMDKRQGQRVTVLLNKTVKHLSLQIAATQPGDSAVYFCAESYGQKLLFARGTMLKVDL
V domain 2: EAQVTQNPRYLITVTGKKLTVTCSQNMNHEYMSWYRQDPGLGLRQIYYSMNVEVTDKGDVPEGYKVSRKEKRNFPLILESPSPNQTSLYFCASSFWSAGELFFGEGSRLTVLE
notes: TCR on T cells
B16: nwTCR-2719 (TCR, V domains shown)
V domain 1: GIQVEQSPPDLILQEGANSTLRCNFSDSVNNLQWFHQNPWGQLINLFYIPSGTKQNGRLSATTVATERYSLLYISSSQTTDSGVYFCAVLAPGTYKYIFGTGTRLKVLA
V domain 2: EAQVTQNPRYLITVTGKKLTVTCSQNMNHEYMSWYRQDPGLGLRQIYYSMNVEVTDKGDVPEGYKVSRKEKRNFPLILESPSPNQTSLYFCASSWGSGYEQYFGPGTRLTVTE
notes: TCR on T cells
B17: nwTCR-2793 (TCR, V domains shown)
V domain 1: QKEVEQNSGPLSVPEGAIASLNCTYSDRVSQSFFWYRQYSGKSPELIMSIYSNGDKEDGRFTAQLNKASQYVSLLIRDSQPSDSATYLCAVVSSNDYKLSFGAGTTVTVRA
V domain 2: EAQVTQNPRYLITVTGKKLTVTCSQNMNHEYMSWYRQDPGLGLRQIYYSMNVEVTDKGDVPEGYKVSRKEKRNFPLILESPSPNQTSLYFCASSPGTIGELFFGEGSRLTVLE
notes: TCR on T cells
B18: nwTCR-2383 (TCR, V domains shown)
V domain 1: GIQVEQSPPDLILQEGANSTLRCNFSDSVNNLQWFHQNPWGQLINLFYIPSGTKQNGRLSATTVATERYSLLYISSSQTTDSGVYFCAVMPSGTYKYIFGTGTRLKVLA
V domain 2: EAQVTQNPRYLITVTGKKLTVTCSQNMNHEYMSWYRQDPGLGLRQIYYSMNVEVTDKGDVPEGYKVSRKEKRNFPLILESPSPNQTSLYFCASSPSSGYNEQFFGPGTRLTVLE
notes: TCR on T cells
B19: nwTCR-2720 (TCR, V domains shown)
V domain 1: SQQGEEDPQALSIQEGENATMNCSYKTSINNLQWYRQNSGRGLVHLILIRSNEREKHSGRLRVTLDTSKKSSSLLITASRAADTASYFCATDLSGAGSYQLTFGKGTKLSVIP
V domain 2: EAQVTQNPRYLITVTGKKLTVTCSQNMNHEYMSWYRQDPGLGLRQIYYSMNVEVTDKGDVPEGYKVSRKEKRNFPLILESPSPNQTSLYFCASSLGTGFGELFFGEGSRLTVLE
notes: TCR on T cells
B20: nwTCR-2970 (TCR, V domains shown)
V domain 1: QQPVQSPQAVILREGEDAVINCSSSKALYSVHWYRQKHGEAPVFLMILLKGGEQKGHDKISASFNEKKQQSSLYLTASQLSYSGTYFCGTEFRNDYKLSFGAGTTVTVRA
V domain 2: EAQVTQNPRYLITVTGKKLTVTCSQNMNHEYMSWYRQDPGLGLRQIYYSMNVEVTDKGDVPEGYKVSRKEKRNFPLILESPSPNQTSLYFCASSPGTGGYGYTFGSGTRLTVVE
notes: TCR on T cells
B21: nwTCR-3095 (TCR, V domains shown)
V domain 1: DQQVKQNSPSLSVQEGRISILNCDYTNSMFDYFLWYKKYPAEGPTFLISISSIKDKNEDGRFTVFLNKSAKHLSLHIVPSQPGDSAVYFCAAFASDSNYQLIWGAGTKLIIKP
V domain 2: DTAVSQTPKYLVTQMGNDKSIKCEQNLGHDTMYWYKQDSKKFLKIMFSYNNKELIINETVPNRFSPKSPDKAHLNLHINSLELGDSAVYFCASSPWTSGGNGELFFGEGSRLTVLE
notes: TCR on T cells

Biological target: T1, labeled peptide-MHC (HLA-A*02:01) tetramer (…-HLA-A*02:01 tetramer) (human)
T1 construct: Labeled tetramer used for flow cytometry staining; also called pMHC; pMHC tetramer
Experiment: tetramer staining of sorted T cell clones, flow cytometry

Binding result, binds:
B1, B2, B3, B4, B5, B6, B7, B8, B9, B10, B11, B12, B13, B14, B15, B16, B17, B18, B19, B20, B21
